Measured values from publication doi:10.1101/2025.11.10.687516 (bioRxiv, 2025).
Values joined by “and” are separate entries in the source; they are usually repeats but may differ in a detail not shown here. Identical values can stand only once. Like-named read-outs stand apart in the source and are kept apart here.

Key:
SEC [1] = target: the molecule itself; test: SEC
SEC [2] = target: the molecule itself; test: SEC; remark: listed apart in the source

B1: D-tagatose-1,6-bisphosphate aldolase subunit GatZ (natural protein, E. coli, UniProt P0C8J8 1-420, looked up)
chain: MKTLIARHKAGEHIGICSVCSAHPLVIEAALAFDRNSTRKVLIEATSNQVNQFGGYTGMTPADFREFVFTIADKVGFARERIILGGDHLGPNCWQQENADAAMEKSVELVKEYVRAGFSKIHLDASMSCAGDPIPLAPETVAERAAVLCFAAESVATDCQREQLSYVIGTEVPVPGGEASAIQSVHITHVEDAANTLRTHQKAFIARGLTEALTRVIAIVVQPGVEFDHSNIIHYQPQEAQPLAQWIENTRMVYEAHSTDYQTRTAYWELVRDHFAILKVGPALTFALREAIFALAQIEQELIAPENRSGCLAVIEEVMLDEPQYWKKYYRTGFNDSLLDIRYSLSDRIRYYWPHSRIKNSVETMMVNLEGVDIPLGMISQYLPKQFERIQSGELSAIPHQLIMDKIYDVLRAYRYGCAE
Q: B1 was tested. Which “stoichiometry N” value (SEC [1]) did it give?
A: Its value is 2 and 4.

B2: PhnO (natural protein, UniProt P16691 1-144, looked up)
chain: MPACELRPATQYDTDAVYALICELKQAEFDHHAFRVGFNANLRDPNMRYHLALLDGEVVGMIGLHLQFHLHHVNWIGEIQELVVMPQARGLNVGSKLLAWAEEEARQAGAEMTELSTNVKRHDAHRFYLREGYEQSHFRFTKAL
Q: B2 was tested. Which “stoichiometry N” value (SEC [2]) did it give?
A: Its value is 2.

B3: GrxB (natural protein, E. coli, UniProt P0AC59 1-215, looked up)
chain: MKLYIYDHCPYCLKARMIFGLKNIPVELHVLLNDDAETPTRMVGQKQVPILQKDDSRYMPESMDIVHYVDKLDGKPLLTGKRSPAIEEWLRKVNGYANKLLLPRFAKSAFDEFSTPAARKYFVDKKEASAGNFADLLAHSDGLIKNISDDLRALDKLIVKPNAVNGELSEDDIQLFPLLRNLTLVAGINWPSRVADYRDNMAKQTQINLLSSMAI
Q: B3 was tested. Which “stoichiometry N” value (SEC [1]) did it give?
A: The value was 2.
